Laboratory results reported in US20180291110A1 (Hoffmann-La Roche, published 2018).
Residue numbers refer to the chain shown, from its start.

B1: 2/99 VH22/VL6 (antibody, V domains shown)
VH: QSMQESGPGLVKPSQTLSLTCTVSGFSLSSYAMSWVRQHPGKGLEWIGYIWSGGSTDYASWAKSRVTISVDTSKNQVSLKLSSVTAADTAVYYCARRYGTSYPDYGDANGFDPWGQGTLVTVSS
VL: AIQLTQSPSSLSASVGDRVTITCRASQSISSYLSWYQQKPGKAPKLLIYRASTLASGVPSRFSGSGSGTDFTLTISSLQPEDFATYYCQQSYSSSNVDNTFGGGTKVEIK
B2: 2/99 VH19/VL8 (antibody, V domains shown)
VH: B1 VH with V36I, S60P, W61S, A62L, V77F
VL: B1 VL with I2Y
B3: 2/99 VH8/VL7 (antibody, V domains shown)
VH: QQLVETGGGLIQPGGSLRLSCAASGFSLSSYAMSWVRQAPGKGLEWIGYIWSGGSTDYASWAKGRFTISKTSTTLYLQMNSLRAEDTAVYYCARRYGTSYPDYGDANGFDPWGQGTLVTVSS
VL: B1 VL with S34A
B4: 2/99 VH17/VL7 (antibody, V domains shown)
VH: B1 VH with S2Q, M3L, Q15E, H39P, A59N, S60P, W61S, A62L, V70K, Q116P
VL: B1 VL with S34A
B5: 2/99 VH5/VL7 (antibody, V domains shown)
VH: QSMEETGGGLIQPGGSLRLSCAASGFSLSSYAMSWVRQAPGKGLEWVGYIWSGGSTDYADSVKGRFTISRDNSKNTLYLQMNSLRAEDTAVYYCARRYGTSYPDYGDANGFDPWGPGTLVTVSS
VL: B1 VL with S34A
B6: 2/99 VH21/VL7 (antibody, V domains shown)
VH: B1 VH with V36I
VL: B1 VL with S34A
B7: 2/99 VH11/VL7 (antibody, V domains shown)
VH: B5 VH with S2Q, M3L, E4L, T6S, I11V, P116Q
VL: B1 VL with S34A
B8: 2/99 VH6/VL7 (antibody, V domains shown)
VH: B5 VH with S2Q, M3L, E4V, V47I, P116Q
VL: B1 VL with S34A
B9: 2/99 VH20/VL7 (antibody, V domains shown)
VH: B1 VH with V36I, S60P, W61S, A62L
VL: B1 VL with S34A
B10: 2/99 VH7/VL7 (antibody, V domains shown)
VH: B5 VH with S2Q, M3L, E4V, V47I, D60S, S61W, V62A, P116Q
VL: B1 VL with S34A
B11: 2/99 VH12/VL8 (antibody, V domains shown)
VH: QVQLQESGPGLVKPSETLSLTCTVSGFSLSSYAMSWIRQPPGKGLEWIGYIWSGGSTDYNPSLKSRVTISVDTSKNQFSLKLSSVTAADTAVYYCARRYGTSYPDYGDANGFDPWGQGTLVTVSS
VL: B1 VL with I2Y
B12: 2/99 VH16/VL7 (antibody, V domains shown)
VH: B1 VH with S2Q, M3L, Q15E, H39P, A59N, S60P, W61S, A62L, Q116P
VL: B1 VL with S34A
B13: 2/99 VH19/VL7 (antibody, V domains shown)
VH: B1 VH with V36I, S60P, W61S, A62L, V77F
VL: B1 VL with S34A
B14: 2/99 VH2/VL7 (antibody, V domains shown)
VH: EVQLVETGGGLIQPGGSLRLSCAASGFSLSSYAMSWVRQAPGKGLEWVGYIWSGGSTDYADSVKGRFTISRDNSKNTLYLQMNSLRAEDTAVYYCARRYGTSYPDYGDANGFDPWGQGTLVTVSS
VL: B1 VL with S34A
B15: 2/99 VH5/VL8 (antibody, V domains shown)
VH: B5 VH
VL: B1 VL with I2Y
B16: 2/99 VH23-DANG/VL7 (antibody, V domains shown)
VH: QSMQESGPGLVKPSQTLSLTCTVSGFSLSSYAMSWIRQHPGKGLEWIGYIWSGGSTDYASWAKSRVTISKTSTTVSLKLSSVTAADTAVYYCARRYGTSYPDYGDANGFDPWGQGTLVTVSS
VL: B1 VL with S34A
B17: 2/99 VH6/VL8 (antibody, V domains shown)
VH: B5 VH with S2Q, M3L, E4V, V47I, P116Q
VL: B1 VL with I2Y
B18: 2/99 VH17/VL8 (antibody, V domains shown)
VH: B1 VH with S2Q, M3L, Q15E, H39P, A59N, S60P, W61S, A62L, V70K, Q116P
VL: B1 VL with I2Y
B19: 2/99 VH13/VL8 (antibody, V domains shown)
VH: B11 VH with F78V
VL: B1 VL with I2Y
B20: 2/99 VH7/VL8 (antibody, V domains shown)
VH: B5 VH with S2Q, M3L, E4V, V47I, D60S, S61W, V62A, P116Q
VL: B1 VL with I2Y
B21: 2/99 VH1/VL7 (antibody, V domains shown)
VH: B5 VH with Q1V, S2Q, M3L, E4V, P116Q
VL: B1 VL with S34A
B22: 2/99 VH18/VL8 (antibody, V domains shown)
VH: B11 VH with E16Q, P40H, N60A
VL: B1 VL with I2Y
B23: 2/99 VH9/VL7 (antibody, V domains shown)
VH: B5 VH with S2Q, M3L, E4L, T6S, I11V, S27T, L28F, R96K, P116Q
VL: B1 VL with S34A
B24: 2/99 VH2/VL8 (antibody, V domains shown)
VH: B14 VH
VL: B1 VL with I2Y
B25: 2/99 VH13/VL7 (antibody, V domains shown)
VH: B11 VH with F78V
VL: B1 VL with S34A
B26: 2/99 VH16/VL8 (antibody, V domains shown)
VH: B1 VH with S2Q, M3L, Q15E, H39P, A59N, S60P, W61S, A62L, Q116P
VL: B1 VL with I2Y
B27: 2/99 VH11/VL8 (antibody, V domains shown)
VH: B5 VH with S2Q, M3L, E4L, T6S, I11V, P116Q
VL: B1 VL with I2Y
B28: 2/99 VH9/VL8 (antibody, V domains shown)
VH: B5 VH with S2Q, M3L, E4L, T6S, I11V, S27T, L28F, R96K, P116Q
VL: B1 VL with I2Y
B29: 2/99 VH15/VL8 (antibody, V domains shown)
VH: B1 VH with S2Q, M3L, Q15E, H39P, A59N, S60P, W61S, A62L
VL: B1 VL with I2Y
B30: 2/99 VH1/VL8 (antibody, V domains shown)
VH: B5 VH with Q1V, S2Q, M3L, E4V, P116Q
VL: B1 VL with I2Y
B31: 2/99 VH8/VL8 (antibody, V domains shown)
VH: B3 VH
VL: B1 VL with I2Y
B32: 2/99 VH18/VL7 (antibody, V domains shown)
VH: B11 VH with E16Q, P40H, N60A
VL: B1 VL with S34A
B33: 2/99 VH15/VL7 (antibody, V domains shown)
VH: B1 VH with S2Q, M3L, Q15E, H39P, A59N, S60P, W61S, A62L
VL: B1 VL with S34A
B34: 2/99 VH12/VL7 (antibody, V domains shown)
VH: B11 VH
VL: B1 VL with S34A
B35: 2/99 VH22/VL7 (antibody, V domains shown)
VH: B1 VH
VL: B1 VL with S34A

Each binder was assayed against T1, human transferrin receptor (recombinant, for surface plasmon resonance) (human, UniProt P02786 89-760) (assay: SPR 25C).
T1 construct: also called huTfR; human transferrin receptor-biotinylated
T1 sequence (P02786 89-760 limits assumed): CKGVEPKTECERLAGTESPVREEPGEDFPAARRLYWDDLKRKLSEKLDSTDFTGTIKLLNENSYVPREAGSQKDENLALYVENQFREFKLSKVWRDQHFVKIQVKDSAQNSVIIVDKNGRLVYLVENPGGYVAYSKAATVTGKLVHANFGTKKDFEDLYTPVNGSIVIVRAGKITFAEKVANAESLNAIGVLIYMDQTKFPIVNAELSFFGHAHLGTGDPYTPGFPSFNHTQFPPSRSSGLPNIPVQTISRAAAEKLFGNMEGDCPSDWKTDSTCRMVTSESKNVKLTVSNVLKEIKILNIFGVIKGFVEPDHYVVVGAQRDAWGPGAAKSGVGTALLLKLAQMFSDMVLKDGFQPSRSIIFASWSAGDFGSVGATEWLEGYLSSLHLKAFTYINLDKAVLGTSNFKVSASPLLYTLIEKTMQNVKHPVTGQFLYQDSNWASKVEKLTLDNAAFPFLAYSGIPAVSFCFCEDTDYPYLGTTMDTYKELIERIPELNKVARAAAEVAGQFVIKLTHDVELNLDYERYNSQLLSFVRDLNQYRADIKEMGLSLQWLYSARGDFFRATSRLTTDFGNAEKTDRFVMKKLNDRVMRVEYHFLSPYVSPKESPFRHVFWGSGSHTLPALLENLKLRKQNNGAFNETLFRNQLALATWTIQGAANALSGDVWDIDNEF

In order of falling koff:
1. B7  0.00781 s⁻¹
2. B34  0.00771 s⁻¹
3. B32  0.00766 s⁻¹
4. B23  0.00761 s⁻¹
5. B14  0.0075 s⁻¹
6. B21  0.00733 s⁻¹
7. B9  0.00714 s⁻¹
8. B5  0.00697 s⁻¹
9. B22  0.00677 s⁻¹
10. B2  0.00671 s⁻¹
11. B25  0.00668 s⁻¹
12. B8  0.00563 s⁻¹
13. B27  0.00552 s⁻¹
14. B33  0.00543 s⁻¹
15. B11  0.00531 s⁻¹
16. B12  0.00525 s⁻¹
17. B28  0.00523 s⁻¹
18. B30  0.00485 s⁻¹
19. B24  0.00394 s⁻¹
20. B15  0.00378 s⁻¹
21. B10  0.00366 s⁻¹
22. B35  0.00337 s⁻¹
23. B17  0.00301 s⁻¹
24. B19  0.00247 s⁻¹
25. B6  0.00238 s⁻¹
26. B4  0.00233 s⁻¹
27. B3  0.00231 s⁻¹
28. B1  0.00214 s⁻¹
29. B29  0.00209 s⁻¹
30. B26  0.00197 s⁻¹
31. B20  0.00172 s⁻¹
32. B16  0.00155 s⁻¹
33. B31  0.00116 s⁻¹
34. B18  0.00111 s⁻¹
35. B13  0.001 s⁻¹
